Experiment [1] concerns the target T1, AnkB 28–965 (MBD + AI-c + AI-b) (human, UniProt Q01484-2 28-965).
T1 chain: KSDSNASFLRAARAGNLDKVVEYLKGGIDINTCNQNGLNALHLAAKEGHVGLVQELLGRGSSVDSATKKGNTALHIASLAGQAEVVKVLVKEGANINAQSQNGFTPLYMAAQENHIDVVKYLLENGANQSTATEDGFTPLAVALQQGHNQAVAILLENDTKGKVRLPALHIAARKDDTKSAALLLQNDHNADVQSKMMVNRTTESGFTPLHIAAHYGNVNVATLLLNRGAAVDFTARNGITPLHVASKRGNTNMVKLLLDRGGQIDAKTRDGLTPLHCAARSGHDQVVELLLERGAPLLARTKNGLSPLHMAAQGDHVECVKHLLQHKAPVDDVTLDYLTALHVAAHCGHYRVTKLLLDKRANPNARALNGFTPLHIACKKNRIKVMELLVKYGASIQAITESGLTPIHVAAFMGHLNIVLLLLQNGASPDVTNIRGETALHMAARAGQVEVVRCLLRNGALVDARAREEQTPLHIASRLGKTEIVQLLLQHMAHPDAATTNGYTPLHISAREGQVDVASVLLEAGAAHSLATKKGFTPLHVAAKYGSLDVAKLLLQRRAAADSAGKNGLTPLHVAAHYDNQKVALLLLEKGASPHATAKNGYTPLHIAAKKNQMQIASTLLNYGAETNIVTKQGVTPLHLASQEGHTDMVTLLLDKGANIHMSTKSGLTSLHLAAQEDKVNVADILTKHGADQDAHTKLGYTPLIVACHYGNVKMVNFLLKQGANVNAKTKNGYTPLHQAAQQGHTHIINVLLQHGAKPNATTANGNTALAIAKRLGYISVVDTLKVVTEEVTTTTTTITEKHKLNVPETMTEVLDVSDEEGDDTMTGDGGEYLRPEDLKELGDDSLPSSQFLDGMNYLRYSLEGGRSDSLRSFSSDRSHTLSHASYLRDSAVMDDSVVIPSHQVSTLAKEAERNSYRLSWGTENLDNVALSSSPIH
As to the kind of experiment: ITC. In general terms: In ITC the heat of successive injections is recorded.

For experiment [2], the target named is T2, AnkG 38–903 (MBD + AI-c + AI-b) (rat, UniProt O70511-1 38-903).
T2 chain: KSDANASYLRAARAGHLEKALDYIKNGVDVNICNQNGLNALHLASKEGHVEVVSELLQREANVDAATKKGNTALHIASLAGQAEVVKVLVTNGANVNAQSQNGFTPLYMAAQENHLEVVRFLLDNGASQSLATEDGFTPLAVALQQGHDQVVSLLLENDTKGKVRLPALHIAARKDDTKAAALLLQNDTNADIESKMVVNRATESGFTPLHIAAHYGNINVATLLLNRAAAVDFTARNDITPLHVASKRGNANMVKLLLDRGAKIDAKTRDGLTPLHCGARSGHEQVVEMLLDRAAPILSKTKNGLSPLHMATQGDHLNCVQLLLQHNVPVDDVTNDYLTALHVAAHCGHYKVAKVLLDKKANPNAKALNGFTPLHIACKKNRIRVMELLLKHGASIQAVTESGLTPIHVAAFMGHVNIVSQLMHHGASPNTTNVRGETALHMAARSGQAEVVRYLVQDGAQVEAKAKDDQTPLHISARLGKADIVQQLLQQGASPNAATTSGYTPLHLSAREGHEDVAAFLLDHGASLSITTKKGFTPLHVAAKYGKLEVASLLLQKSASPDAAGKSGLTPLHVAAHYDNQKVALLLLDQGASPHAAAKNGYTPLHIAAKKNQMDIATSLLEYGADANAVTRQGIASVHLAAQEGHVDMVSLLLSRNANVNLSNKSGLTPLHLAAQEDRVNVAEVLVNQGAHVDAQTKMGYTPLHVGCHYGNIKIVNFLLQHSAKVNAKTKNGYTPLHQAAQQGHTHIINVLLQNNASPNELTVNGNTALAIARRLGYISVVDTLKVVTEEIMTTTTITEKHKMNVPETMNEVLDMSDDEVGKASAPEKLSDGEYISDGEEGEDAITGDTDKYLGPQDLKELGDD
As to the kind of experiment: ITC.

By Kd is commonly meant the concentration at which binding is half-saturated. In the case of SDDSLVDYGEGGEGQFNEDGSFIGQYTV (domain or fragment) [NF186 (aa 1187–1214)], the Kd amounted to 23 µM in experiment [1] and 4.2 µM in experiment [2].

For the origin of these results see paper PMC5779224 (2017).
